We go through ten molecules from patent publication US20250041437A1, “HUMANIZED MUC1 ANTIBODY AND ANTIBODY DRUG CONJUGATE” (Sun Pharma Advanced Research Company Limited, priority 2023, published 2025).

For one data set, the system named is HT-29 cells. Kind of data set: Growth inhibition of human cancer cell lines, HT-29. The format is cell-based. The settings on record: HT-29, no MUC1 expressing. Here is the method: (§1) Human cancer cell lines (such as Colo357, HT29, SKOV3, BxPC3 and T47D) were seeded at 5000 cells/well in a 96-well plate flat bottom clear plate and allowed to adhere overnight. Next day, antibody/ADCs were added to these cells at the mentioned concentration or at a mentioned concentration range. Post 5-7 days of treatment, 20 μl of presto blue dye was added to wells and absorbance was recorded at 570 nm (600 nm reference wavelength). Percent survival was calculated against wells containing untreated cells in complete media and IC50 was calculated in Graphpad Prism.

In data set [1] the target is T1, human MUC1-expressing SKOV3 cell line (Homo sapiens, UniProt P15941).
T1 construct: endogenous in cells; host or cells: SKOV3, COLO357, HT29 (human cancer cell lines)
The data set can be described thus: Binding by flow cytometry on SKOV3 cell line. From the text:
The CDR residues from mouse anti-MUC1 antibody (m5F3) VH- (SEQ ID NO: 1) and VL- (SEQ ID NO: 2) domains were identified according to the three antibody numbering systems and grafted onto the human framework region sequences VH- (SEQ ID NO: 3) and VL- (SEQ ID NO: 4) domains respectively. CDRs from 5F3 were chemically synthesized and subsequently cloned into mammalian expression vectors. The expression vectors with humanized 5F3 heavy chain and light chain were named as SP66-HC and SP66-LC respectively. The VH domain of SP66 is SEQ ID NO: 5, and the VL domain of SP66 is SEQ ID NO: 6. The antibody expressed with SP66-HC and SP66-LC was named as SP66. SP66 was transiently expressed in CHO cells and purified by Protein-A affinity chromatography and evaluated for its binding to the human MUC1 SEA domain using flow cytometry on the human MUC1-expressing SKOV3 cell line (FIG. 1).
Dose dependent binding of surface MUC1 expression on human cancer cells using flow cytometer: Human cancer cell lines (COLO357, HT29 and SKOV3) or mouse cancer cell line expressing human MUC1 (DA3-TM) were harvested enzymatically using 0.25% Trypsin and 0.2% EDTA in Dulbecco's Phosphate Buffered Saline (D-PBS), washed with excess cell culture media and re-suspended at a cell density of 1-2×10^6/mL in the cell-line specific cell culture media. […]

For a further data set, the system named is SKOV-3 cells. Kind of data set: Growth inhibition of human cancer cell lines, SKOV-3. The format is cell-based. The settings on record: SKOV-3, moderate MUC1 expressing. Here is the method: as §1
The test system of data set [2] is COLO-357 pancreatic carcinoma cells. The data set can be described thus: Growth inhibition of human cancer cell lines, COLO-357. The settings on record: COLO-357, high MUC1-SEA expressing.
Data set [3] addresses T2, recombinant human MUC1-SEA (Homo sapiens, UniProt P15941).
T2 construct: on recombinant human MUC1-SEA on SPR; purchased Acrobiosystems MU1-H52H9
T2 sequence (P15941 1039-1148 limits assumed): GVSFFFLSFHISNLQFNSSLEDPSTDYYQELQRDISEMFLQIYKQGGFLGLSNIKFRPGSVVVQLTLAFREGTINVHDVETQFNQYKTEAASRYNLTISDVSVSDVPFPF
The data set can be described thus: Binding strength by Surface Plasmon Resonance (SPR). The settings on record: Table 2. The method, then:
Binding strength assessment using Surface Plasmon Resonance (SPR): MUC1 antigen (Acrobiosystems, Cat: MU1-H52H9) was captured on the anti-His immobilized on CM5 chip at 5 μl/min flow rate for 60 s. Post this concentration range of 0-50 nM of antibody or ADC is passed over MUC1 antigen at a flow rate of 30 μl/min flow rate for 120 s, keeping dissociation time of 1800 s at 25°. The dose response generated is evaluated on BIAevaluation software for the calculation of affinity of antibody to antigen as measured by dissociation constant (KD).

For data set [4], the target named is T3, human MUC1 expressing DA3-TM cell line (Homo sapiens, UniProt P15941).
T3 construct: expressed in transfected cells; host or cells: DA3-TM (mouse cancer cell line)
Kind of data set: Dose dependent binding by flow cytometry on DA3-TM cell line. The settings on record: MUC1 positive DA3-TM cell line. An excerpt:
Dose dependent binding of surface MUC1 expression on human cancer cells using flow cytometer: Human cancer cell lines (COLO357, HT29 and SKOV3) or mouse cancer cell line expressing human MUC1 (DA3-TM) were harvested enzymatically using 0.25% Trypsin and 0.2% EDTA in Dulbecco's Phosphate Buffered Saline (D-PBS), washed with excess cell culture media and re-suspended at a cell density of 1-2×10^6/mL in the cell-line specific cell culture media. The anti-MUC1-SEA mAb (chimeric or humanized IgG)/ADC or the reference IgG antibody/ADC were added to cells at a concentration range of 0-50 nM. The cells were maintained at 4° C. for 1 hour and washed with the excess cell culture media. These cells were further stained with goat anti-human IgG, Fcγ, conjugated with Alexa Fluor 647 (Jackson Immuno Research, West Grove, PA, USA) for 1 hour at 4° C. The concentration for goat anti-human IgG, Fcγ was as per the manufacturer's instructions. Cells were further washed with the excess cell culture media and re-suspended in 100 μl of cell culture media. Cell-associated fluorescence was detected and recorded using flow cytometry (Beckman Coulter, Cytoflex). The mean intensity of fluorescence was obtained from FlowJo software and graph was plotted in Graphpad prism of concentration versus mean intensity of fluorescence.

T1 sequence (P15941 24-1255): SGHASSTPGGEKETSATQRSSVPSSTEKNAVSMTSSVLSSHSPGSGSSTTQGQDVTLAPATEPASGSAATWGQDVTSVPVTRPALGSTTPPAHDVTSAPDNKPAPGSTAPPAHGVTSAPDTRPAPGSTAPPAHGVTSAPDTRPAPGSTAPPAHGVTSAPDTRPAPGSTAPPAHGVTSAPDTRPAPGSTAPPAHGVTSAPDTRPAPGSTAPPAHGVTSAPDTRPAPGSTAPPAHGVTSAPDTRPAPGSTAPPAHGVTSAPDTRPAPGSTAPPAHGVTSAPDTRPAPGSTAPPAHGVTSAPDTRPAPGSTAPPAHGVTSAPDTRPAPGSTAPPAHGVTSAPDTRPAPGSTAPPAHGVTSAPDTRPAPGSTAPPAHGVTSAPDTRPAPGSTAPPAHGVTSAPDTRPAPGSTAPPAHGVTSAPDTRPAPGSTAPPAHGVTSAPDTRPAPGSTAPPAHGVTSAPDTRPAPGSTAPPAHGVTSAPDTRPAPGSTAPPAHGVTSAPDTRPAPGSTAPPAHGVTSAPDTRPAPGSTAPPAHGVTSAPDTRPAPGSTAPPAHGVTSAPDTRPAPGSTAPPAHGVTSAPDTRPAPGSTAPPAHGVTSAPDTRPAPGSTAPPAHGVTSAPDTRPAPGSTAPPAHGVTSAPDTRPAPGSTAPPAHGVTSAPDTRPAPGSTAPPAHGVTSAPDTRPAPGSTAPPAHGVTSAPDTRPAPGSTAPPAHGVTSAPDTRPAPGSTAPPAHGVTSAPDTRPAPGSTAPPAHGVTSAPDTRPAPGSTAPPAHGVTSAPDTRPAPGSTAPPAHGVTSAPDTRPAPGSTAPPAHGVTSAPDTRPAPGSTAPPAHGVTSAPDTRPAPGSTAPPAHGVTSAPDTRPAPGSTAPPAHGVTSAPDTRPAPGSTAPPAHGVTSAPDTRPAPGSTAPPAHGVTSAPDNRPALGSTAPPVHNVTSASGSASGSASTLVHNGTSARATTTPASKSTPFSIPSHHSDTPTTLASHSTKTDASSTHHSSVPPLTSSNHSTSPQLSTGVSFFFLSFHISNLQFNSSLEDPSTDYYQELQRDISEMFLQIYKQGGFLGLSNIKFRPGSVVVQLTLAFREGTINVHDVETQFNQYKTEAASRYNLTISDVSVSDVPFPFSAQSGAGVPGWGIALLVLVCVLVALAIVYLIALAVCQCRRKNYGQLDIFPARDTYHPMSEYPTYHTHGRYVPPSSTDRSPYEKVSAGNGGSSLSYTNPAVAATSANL
T3 sequence (P15941 24-1255): as above

B1: SP66: CDR-grafted humanized 5F3; VH SEQ ID NO: 5, VL SEQ ID NO: 6 (antibody, V domains shown)
VH: EIQLVQSGAEVKKPGSSVKVSCKASGHSITRGSSWHWMRQAPGQGLEWIGYIHYGGGTSYNPSLKSRATLTVDTSTNTAYMELSSLRSEDTAFYFCARYSYDITYRWFFDVWGQGTLVTVSS
VL: DIQMTQSPSTLSASVGDRVTITCRASQNIGTSIHWFQQKPGKAPKLLMYRASESISGVPSRFSGSGSGTEFTLTISSLQPDDFATYYCQQNNNWPLTFGQGTKVEVK
As for B1, the “cytotoxic effect / growth inhibition (in words)” value (in the data set on HT-29 cells; in the data set on SKOV-3 cells; in data set [2]) was “No growth inhibition” in each case. Besides, in data set [1], the “binding by flow cytometry (in words)” value is reported as “unable to bind”.

B2: HM2 LM3: variant of SP66; VH HM2 SEQ ID NO: 8, VL LM3 SEQ ID NO: 14 (antibody, V domains shown)
VH: EIQLVQSGAEVKKPGSSVKVSCKVTGHSITRGSSWHWMRQAPGQGLEWIGYIHYGGGTSYNPSLKSRITITRDTSTNTAYMELSSLRSEDTAFYFCARYSYDITYRWFFDVWGQGTLVTVSS
VL: DIQMTQSPSTLSASVGDRVTITCRASQNIGTSIHWYQQKPGKAPKLLIKYASESISGVPSRFSGSGSGTEFTLTISSLQPDDFATYYCQQNNNWPLTFGQGTKVEVK
For the molecule B2, the kd in data set [3] came to 0.000188 s⁻¹.

B3: HM5 LM3: variant of SP66; VH HM5 SEQ ID NO: 11, VL LM3 SEQ ID NO: 14 (antibody, V domains shown)
VH: EIQLVQSGAEVKKPGSSVKVSCKVTGHSITRGSSWHWMRQAPGQGLEWIGYIHYGGGTSYNPSLKSRITITRDTSTNTFYMELSSLRSEDTAFYFCARYSYDITYRWFFDVWGQGTLVTVSS
VL: DIQMTQSPSTLSASVGDRVTITCRASQNIGTSIHWYQQKPGKAPKLLIKYASESISGVPSRFSGSGSGTEFTLTISSLQPDDFATYYCQQNNNWPLTFGQGTKVEVK
B3: the kd in data set [3] came out at 0.000198 s⁻¹.

B4: HM4 LM2: variant of SP66; VH HM4 SEQ ID NO: 10, VL LM2 SEQ ID NO: 13 (antibody, V domains shown)
VH: EIQLVQSGAEVKKPGSSVKVSCKVTGHSITRGSSWHWMRQAPGQGLEWIGYIHYGGGTSYNPSLKSRATLTRDTSTNTFYMELSSLRSEDTAFYFCARYSYDITYRWFFDVWGQGTLVTVSS
VL: DIQMTQSPSTLSASVGDRVTITCRASQNIGTSIHWYQQKPGKAPKLLIKRASESISGVPSRFSGSGSGTEFTLTISSLQPDDFATYYCQQNNNWPLTFGQGTKVEVK
In the case of B4, the kd in data set [3] came to 0.000261 s⁻¹.

B5: HM3 LM2: variant of SP66; VH HM3 SEQ ID NO: 9, VL LM2 SEQ ID NO: 13 (antibody, V domains shown)
VH: EIQLVQSGAEVKKPGSSVKVSCKVTGHSITRGSSWHWMRQAPGQGLEWIGYIHYGGGTSYNPSLKSRATLTRDTSTNTAYMELSSLRSEDTAFYFCARYSYDITYRWFFDVWGQGTLVTVSS
VL: DIQMTQSPSTLSASVGDRVTITCRASQNIGTSIHWYQQKPGKAPKLLIKRASESISGVPSRFSGSGSGTEFTLTISSLQPDDFATYYCQQNNNWPLTFGQGTKVEVK
For B5, in data set [3], the kd was 0.000492 s⁻¹.

B6: HM3 LM3: variant of SP66; VH HM3 SEQ ID NO: 9, VL LM3 SEQ ID NO: 14 (antibody, V domains shown)
VH: EIQLVQSGAEVKKPGSSVKVSCKVTGHSITRGSSWHWMRQAPGQGLEWIGYIHYGGGTSYNPSLKSRATLTRDTSTNTAYMELSSLRSEDTAFYFCARYSYDITYRWFFDVWGQGTLVTVSS
VL: DIQMTQSPSTLSASVGDRVTITCRASQNIGTSIHWYQQKPGKAPKLLIKYASESISGVPSRFSGSGSGTEFTLTISSLQPDDFATYYCQQNNNWPLTFGQGTKVEVK
Regarding B6, the kd in data set [3] was 0.00347 s⁻¹.

B7: HM5 LM2: variant of SP66; VH HM5 SEQ ID NO: 11, VL LM2 SEQ ID NO: 13 (antibody, V domains shown)
VH: EIQLVQSGAEVKKPGSSVKVSCKVTGHSITRGSSWHWMRQAPGQGLEWIGYIHYGGGTSYNPSLKSRITITRDTSTNTFYMELSSLRSEDTAFYFCARYSYDITYRWFFDVWGQGTLVTVSS
VL: DIQMTQSPSTLSASVGDRVTITCRASQNIGTSIHWYQQKPGKAPKLLIKRASESISGVPSRFSGSGSGTEFTLTISSLQPDDFATYYCQQNNNWPLTFGQGTKVEVK
B7: in data set [3], the kd came to 0.000213 s⁻¹.

B8: HM4 LM3: variant of SP66; VH HM4 SEQ ID NO: 10, VL LM3 SEQ ID NO: 14 (antibody, V domains shown)
VH: EIQLVQSGAEVKKPGSSVKVSCKVTGHSITRGSSWHWMRQAPGQGLEWIGYIHYGGGTSYNPSLKSRATLTRDTSTNTFYMELSSLRSEDTAFYFCARYSYDITYRWFFDVWGQGTLVTVSS
VL: DIQMTQSPSTLSASVGDRVTITCRASQNIGTSIHWYQQKPGKAPKLLIKYASESISGVPSRFSGSGSGTEFTLTISSLQPDDFATYYCQQNNNWPLTFGQGTKVEVK
With B8, in data set [3], the kd is 0.000238 s⁻¹.

B9: HM2 LM2: variant of SP66; VH HM2 SEQ ID NO: 8, VL LM2 SEQ ID NO: 13 (antibody, V domains shown)
VH: EIQLVQSGAEVKKPGSSVKVSCKVTGHSITRGSSWHWMRQAPGQGLEWIGYIHYGGGTSYNPSLKSRITITRDTSTNTAYMELSSLRSEDTAFYFCARYSYDITYRWFFDVWGQGTLVTVSS
VL: DIQMTQSPSTLSASVGDRVTITCRASQNIGTSIHWYQQKPGKAPKLLIKRASESISGVPSRFSGSGSGTEFTLTISSLQPDDFATYYCQQNNNWPLTFGQGTKVEVK
As to B9, the kd in data set [3] turned out to be 0.000255 s⁻¹.

B10: chi 5F3: chimeric anti-MUC1 SEA antibody of WO 2021/186427; variable regions SEQ ID NOs: 42 and 43; parent of the humanized antibodies (antibody, V domains shown)
VH: MRVLILLCLFTAFPGVLSDVQVQESGPDLVKPSQSLSLTCTVTGHSITRGSSWHWIRQFPGNKLEWMGYIHYGGGTSYNPSLKSRISITRDTSKNQFFLQLNSVTTEDTATFFCARYSYDITYRWFFDVWGAGTTVIVSS
VL: MVSTPQFLVFLLFWIPASRGDILLTQSPAILSVSPGERVSFSCRASQNIGTSIHWYQQRKNGSPRLLIKYASESISGIPSRFSGSGSGTDFTLSINSVESEDMADYYCQQNNNWPLTFGAGTKLELK
notes: chimeric anti-MUC1 SEA antibody of WO 2021/186427; parent of the humanized antibodies
In the case of B10, the results for the Kd in data set [3] and in data set [4] were 0.0427 nM and 1 ± 0.1 nM, respectively. For the same molecule, in data set [3], the kd came to 0.000188 s⁻¹.
